Reference: US20120219551A1 (MacroGenics, published 2012)
One block for each binder: values may come before it.

Legend:
[1] = target: T1, FcγRIIIA, soluble monomeric protein (extracellular region joined to the linker-AVITAG sequence) (human, UniProt P08637 17-208); experiment: ELISA
T1 construct: extracellular domain; also called FcRIIIA; FcR3A

[2] = target: T1, FcγRIIIA, soluble monomeric protein …; experiment: ELISA; remark: listed apart in the source
[3] = target: T2, CD16A(V158) (human, UniProt P08637 17-208); experiment: relative off-rate wt/variant; method not given (BIAcore elsewhere)
T2 construct: extracellular domain; Construct as told for the BIAcore assays of Section 7.7; also called FcγRIIIA 158V; 3aV158

[4] = target: T3, CD16A(F158) (human, UniProt P08637 17-208); experiment: as above
T3 construct: extracellular domain; Construct as told for the BIAcore assays of Section 7.7; also called 3aF158

[5] = target: T4, CD32B-G2Ag (human, UniProt P31994 43-217); experiment: as above
T4 construct: extracellular domain; Soluble dimeric protein as told for Section 7.7; also called FcγRIIB-Fc fusion protein; 2bFcagl; not shown: human IgG2 hinge-CH2-CH3 domain
T4 sequence (looked up): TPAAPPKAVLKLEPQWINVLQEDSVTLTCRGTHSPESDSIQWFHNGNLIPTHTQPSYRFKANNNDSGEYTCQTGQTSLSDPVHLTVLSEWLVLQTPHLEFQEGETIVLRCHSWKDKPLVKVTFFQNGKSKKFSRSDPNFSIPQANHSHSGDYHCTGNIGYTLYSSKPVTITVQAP

[6] = target: T5, CD32A-G2Ag (human, UniProt P12318 34-217); experiment: as above
T5 construct: extracellular domain; Soluble dimeric protein as told for Section 7.7 (there 131H); also called FcγRIIA-Fc fusion protein; 2aFcagl; not shown: human IgG2 hinge-CH2-CH3 domain
T5 sequence (looked up): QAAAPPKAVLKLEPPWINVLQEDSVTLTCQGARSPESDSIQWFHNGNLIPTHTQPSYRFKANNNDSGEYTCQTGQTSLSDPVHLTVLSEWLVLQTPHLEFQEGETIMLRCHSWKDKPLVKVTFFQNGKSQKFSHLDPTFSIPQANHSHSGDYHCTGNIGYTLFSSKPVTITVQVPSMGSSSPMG

[7] = target: T6, CD16A (158V) (human, UniProt P08637 17-208); experiment: off-rate ratio vs wild-type Fc (BIAcore per the filing's koff tables)
T6 construct: extracellular domain; Soluble monomeric construct as told for the ch4D5 BIAcore assays of section 7.7; also called FcγRIIIA 158V; FcγRIIIA V158

[8] = target: T7, CD16A (158F) (human, UniProt P08637 17-208); experiment: as above
T7 construct: extracellular domain; Soluble monomeric construct as told for the ch4D5 BIAcore assays of section 7.7

[9] = target: T8, CD32B (human, UniProt P31994 43-217); experiment: as above
T8 construct: extracellular domain; Soluble dimeric fusion as told for the ch4D5 BIAcore assays of section 7.7; also called FcγRIIB; FcγRII-B; not shown: hinge-CH2-CH3 domain of human IgG2
T8 sequence (looked up): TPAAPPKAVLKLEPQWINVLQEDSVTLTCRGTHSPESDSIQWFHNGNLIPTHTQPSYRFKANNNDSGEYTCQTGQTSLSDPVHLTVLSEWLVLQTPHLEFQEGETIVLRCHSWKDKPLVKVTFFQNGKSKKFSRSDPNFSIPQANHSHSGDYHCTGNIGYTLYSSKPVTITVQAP

[10] = target: T9, CD32A (131H) (human, UniProt P12318 34-217); experiment: as above
T9 construct: extracellular domain; Soluble dimeric fusion as told for the ch4D5 BIAcore assays of section 7.7; also called FcγRIIA 131H; not shown: hinge-CH2-CH3 domain of human IgG2
T9 sequence (looked up): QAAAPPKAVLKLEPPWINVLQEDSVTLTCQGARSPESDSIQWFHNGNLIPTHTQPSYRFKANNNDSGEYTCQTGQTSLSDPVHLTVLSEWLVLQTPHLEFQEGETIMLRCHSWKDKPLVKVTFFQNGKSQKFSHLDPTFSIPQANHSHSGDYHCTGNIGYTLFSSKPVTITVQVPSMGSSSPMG

[11] = target: T10, CD32A (131R) (human, UniProt P12318 34-217); experiment: as above
T10 construct: extracellular domain; Soluble dimeric fusion as told for FcγRIIA in section 7.7 (there for 131H); also called FcγRIIA 131R; not shown: hinge-CH2-CH3 domain of human IgG2
T10 sequence (looked up): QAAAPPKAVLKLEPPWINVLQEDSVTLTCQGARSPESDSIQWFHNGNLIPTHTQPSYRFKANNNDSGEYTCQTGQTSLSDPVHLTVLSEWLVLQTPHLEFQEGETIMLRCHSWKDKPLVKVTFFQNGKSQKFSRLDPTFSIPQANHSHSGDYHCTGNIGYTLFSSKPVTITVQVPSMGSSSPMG

T1 sequence (P08637 17-208 F176V limits assumed, form in doubt): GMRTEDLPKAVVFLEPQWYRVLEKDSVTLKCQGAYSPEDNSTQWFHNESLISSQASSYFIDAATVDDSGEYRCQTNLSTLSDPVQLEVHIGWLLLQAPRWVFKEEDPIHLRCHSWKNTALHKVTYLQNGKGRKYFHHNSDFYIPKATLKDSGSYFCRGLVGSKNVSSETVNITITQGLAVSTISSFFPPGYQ
T7 sequence (P08637 17-208): as the sequence (P08637 17-208 F176V limits assumed, form in doubt) above, with V160F counted along it
T3 sequence (P08637 17-208): as the sequence (P08637 17-208 F176V limits assumed, form in doubt) above, with V160F counted along it
T6 sequence (P08637 17-208 F176V): as the sequence (P08637 17-208 F176V limits assumed, form in doubt) above
T2 sequence (P08637 17-208 F176V): as the sequence (P08637 17-208 F176V limits assumed, form in doubt) above

ELISA binding, fold vs WT [1]: 1.5 fold | fold change vs WT [2]: 1.5 fold
B1: Fc variant K334E, T359N, T366S (antibody)
chain: ASTKGPSVFPLAPSSKSTSGGTAALGCLVKDYFPEPVTVSWNSGALTSGVHTFPAVLQSSGLYSLSSVVTVPSSSLGTQTYICNVNHKPSNTKVDKKVEPKSCDKTHTCPPCPAPELLGGPSVFLFPPKPKDTLMISRTPEVTCVVVDVSHEDPEVKFNWYVDGVEVHNAKTKPREEQYNSTYRVVSVLTVLHQDWLNGKEYKCKVSNKALPAPIEETISKAKGQPREPQVYTLPPSRDELNKNQVSLSCLVKGFYPSDIAVEWESNGQPENNYKTTPPVLDSDGSFFLYSKLTVDKSRWQQGNVFSCSVMHEALHNHYTQKSLSLSPGK

Koff ratio (wt/mut) [3]: 10.1 wt/mut | Koff ratio (wt/mut) [4]: 8.3 wt/mut | Koff ratio (wt/mut) [5]: 3.2 wt/mut | Koff ratio (wt/mut) [6]: 1.4 wt/mut
B2: Antibody 2B6 3.5 Fc Variant 49 (F243L, R292P, Y300L, V305I, P396L) (antibody)
heavy: QVQLVQSGAEVKKPGASVKVSCKASGYTFTNYWIHWVRQAPGQGLEWIGVIDPSDTYPNYNKKFKGRVTMTVDTSTSTAYMELRSLRSDDTAVYYCARNGDSDYYSGMDYWGQGTTVTVSSASTKGPSVFPLAPSSKSTSGGTAALGCLVKDYFPEPVTVSWNSGALTSGVHTFPAVLQSSGLYSLSSVVTVPSSSLGTQTYICNVNHKPSNTKVDKRVEPKSCDKTHTCPPCPAPELLGGPSVFLLPPKPKDTLMISRTPEVTCVVVDVSHEDPEVKFNWYVDGVEVHNAKTKPPEEQYNSTLRVVSILTVLHQDWLNGKEYKCKVSNKALPAPIEKTISKAKGQPREPQVYTLPPSRDELTKNQVSLTCLVKGFYPSDIAVEWESNGQPENNYKTTPLVLDSDGSFFLYSKLTVDKSRWQQGNVFSCSVMHEALHNHYTQKSLSLSPGK
light: EIVLTQSPDFQSVTPKEKVTFTCRTSQSIGTNIHWYQQKPDQSPKLLIKEVSESISGVPSRFSGSGSGTDFTLTINSLEAEDAATYYCQQSNTWPFTFGGGTKVEIKRTVAAPSVFIFPPSDEQLKSGTASVVCLLNNFYPREAKVQWKVDNALQSGNSQESVTEQDSKDSTYSLSSTLTLSKADYEKHKVYACEVTHQGLSSPVTKSFNRGEC
notes: Fc variant of m46; also called h2B6 3.5 0088; copies: 2 + 2

Wild-Type Koff/Mutant Koff [7]: 6.1 | Wild-Type Koff/Mutant Koff [8]: 4.8 | Wild-Type Koff/Mutant Koff [9]: 0.4 | Wild-Type Koff/Mutant Koff [10]: 1.3 | Wild-Type Koff/Mutant Koff [11]: 0.4
B3: ch4D5-FcMT2 (antibody, human IgG1, kappa)
heavy: QVQLQQSGPELVKPGASLKLSCTASGFNIKDTYIHWVKQRPEQGLEWIGRIYPTNGYTRYDPKFQDKATITADTSSNTAYLQVSRLTSEDTAVYYCSRWGGDGFYAMDYWGQGASVTVSSASTKGPSVFPLAPSSKSTSGGTAALGCLVKDYFPEPVTVSWNSGALTSGVHTFPAVLQSSGLYSLSSVVTVPSSSLGTQTYICNVNHKPSNTKVDKRVEPKSCDKTHTCPPCPAPELVGGPSVFLLPPKPKDTLMISRTPEVTCVVVDVSHEDPEVKFNWYVDGVEVHNAKTKPPEEQYNSTLRVVSVLTVLHQDWLNGKEYKCKVSNKALPAPIEKTISKAKGQPREPQVYTLPPSRDELTKNQVSLTCLVKGFYPSDIAVEWESNGQPENNYKTTPLVLDSDGSFFLYSKLTVDKSRWQQGNVFSCSVMHEALHNHYTQKSLSLSPGK
light: DIVMTQSHKFMSTSVGDRVSITCKASQDVNTAVAWYQQKPGHSPKLLIYSASFRYTGVPDRFTGSRSGTDFTFTISSVQAEDLAVYYCQQHYTTPPTFGGGTKVEIKRTVAAPSVFIFPPSDEQLKSGTASVVCLLNNFYPREAKVQWKVDNALQSGNSQESVTEQDSKDSTYSLSSTLTLSKADYEKHKVYACEVTHQGLSSPVTKSFNRGEC
notes: Anti-Her2/neu; also called ch45D4-FcMT2; L235V F243L R292P Y300L P396L
